target: U1A (Homo sapiens) (UniProt P09012); experiment: pulldown; conditions: TALON beads, 4 C
Sequence (P09012 2-282): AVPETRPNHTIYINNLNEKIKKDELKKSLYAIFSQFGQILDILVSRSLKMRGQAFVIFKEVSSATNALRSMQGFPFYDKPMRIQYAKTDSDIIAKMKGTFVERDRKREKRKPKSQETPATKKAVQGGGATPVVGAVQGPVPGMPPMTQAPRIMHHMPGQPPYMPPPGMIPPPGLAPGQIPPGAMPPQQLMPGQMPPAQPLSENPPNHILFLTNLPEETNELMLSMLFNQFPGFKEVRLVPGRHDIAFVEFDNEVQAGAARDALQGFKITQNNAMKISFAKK

First: hsa-mir-378c loop
Second: hsa-mir-412 loop
The binding signal (Cy5 intensity) of the first is lower: 8.37 for the first, 8.95 for the second.

Compared with hsa-mir-422a loop, hsa-mir-493 loop is lower in binding signal (Cy5 intensity): 8.78 for the first, 8.41 for the second.

Going from hsa-mir-637 loop to hsa-mir-658 loop, the binding signal (Cy5 intensity) falls from 8.4 to 8.27.

Going from hsa-mir-1273h loop to hsa-mir-1302-6 loop, the binding signal (Cy5 intensity) rises from 8.2 to 8.55.

Compared with hsa-mir-2682 loop, hsa-mir-3661 loop is higher in binding signal (Cy5 intensity): 8.27 for the first, 9.05 for the second.

hsa-mir-4315-2 loop and hsa-mir-4499 loop are the same in binding signal (Cy5 intensity): 8.28 for the first, 8.28 for the second.

Going from hsa-mir-4723 loop to hsa-mir-5196 loop, the binding signal (Cy5 intensity) rises from 8.48 to 8.67.

Compared with hsa-mir-6796 loop, hsa-mir-6807 loop is lower in binding signal (Cy5 intensity): 8.72 for the first, 8.28 for the second.

First: hsa-mir-6845 loop
Second: hsa-mir-7848 loop
The binding signal (Cy5 intensity) of the first is higher: 9.06 for the first, 8.69 for the second.

target: T1, Lin28A (UniProt Q9H9Z2); experiment: pulldown; conditions: TALON beads, 4 C
T1 sequence: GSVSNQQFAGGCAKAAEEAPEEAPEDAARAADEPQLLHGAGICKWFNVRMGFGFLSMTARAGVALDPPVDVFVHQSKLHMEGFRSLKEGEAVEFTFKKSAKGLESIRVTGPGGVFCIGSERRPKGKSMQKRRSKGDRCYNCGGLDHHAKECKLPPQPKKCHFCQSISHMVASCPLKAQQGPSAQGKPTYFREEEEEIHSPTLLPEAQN

First: hsa-mir-98 loop
Second: hsa-mir-598 loop
The binding signal (Cy5 intensity) of the first is lower: 6.41 for the first, 6.47 for the second.

Going from hsa-mir-638 loop to hsa-mir-940 loop, the binding signal (Cy5 intensity) rises from 6.27 to 6.33.

First: hsa-mir-1233-1 loop
Second: hsa-mir-1233-2 loop
The binding signal (Cy5 intensity) of the first is higher: 6.55 for the first, 6.43 for the second.

Going from hsa-mir-4296 loop to hsa-mir-4453 loop, the binding signal (Cy5 intensity) rises from 6.29 to 6.54.

Compared with hsa-mir-4524b loop, hsa-mir-4730 loop is lower in binding signal (Cy5 intensity): 6.33 for the first, 6.28 for the second.

Going from hsa-mir-5004 loop to hsa-mir-6758 loop, the binding signal (Cy5 intensity) falls from 6.38 to 6.35.

Going from hsa-mir-6775 loop to hsa-mir-6839 loop, the binding signal (Cy5 intensity) falls from 6.44 to 6.39.

In the case of hsa-mir-6884 loop, the binding signal (Cy5 intensity) is reported as 6.37.

target: L7Ae (UniProt O29494); experiment: not given; conditions: RNA microarray, 5 nM L7Ae
Sequence (O29494 whole entry): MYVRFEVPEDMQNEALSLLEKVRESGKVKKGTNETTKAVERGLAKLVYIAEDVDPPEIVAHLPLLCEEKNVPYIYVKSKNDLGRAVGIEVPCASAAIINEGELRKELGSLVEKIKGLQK

First: hsa-mir-1-2 loop
Second: hsa-mir-16-2 loop
The binding signal (log2 Cy3-Cy5+20) of the first is lower: 11.3 for the first, 11.5 for the second.

Going from hsa-mir-34a loop to hsa-mir-204 loop, the binding signal (log2 Cy3-Cy5+20) rises from 11.3 to 11.7.

Going from hsa-mir-363 loop to hsa-mir-4479 loop, the binding signal (log2 Cy3-Cy5+20) falls from 12.5 to 11.3.

Compared with hsa-mir-6773 loop, hsa-mir-6834 loop is higher in binding signal (log2 Cy3-Cy5+20): 11.3 for the first, 11.5 for the second.

Going from mmu-mir-466p loop to mmu-mir-6338 loop, the binding signal (log2 Cy3-Cy5+20) falls from 13.3 to 11.6.

Compared with mmu-mir-6995 loop, mmu-mir-7061 loop is lower in binding signal (log2 Cy3-Cy5+20): 12.2 for the first, 11.8 for the second.

Work on mmu-mir-7220 loop yielded a binding signal (log2 Cy3-Cy5+20) of 11.5.

— patent US20170022545
